From the DeepSol protein solubility set

Test: soluble on expression in E. coli; label from the status in PepcDB or PDB records

Sequence | soluble on expression in E. coli
MRSRPTEGNLLVSIGIPFLNPGPYLDLAVRSVFAQTYLNWELILVDDGSTDGSYERAVAIQDPRVRVLRDGQNKGLPARLNEIVRLAKGELVARMDADDAMHPLRLEKQVGFLQANPELDGVTTGAYLIDAEDRPIALLPGRQPSAQEVLARGGFLHPSLLARKSWFEAHPYSLDYPRAEDRELFVRTFKTSRLHVLSEPLYFYRWFGVPRGKTLRIGYRSERKVMWKYGPNLVGWGPSLRLIALSFGKELLTWFLEWTHLEKGFQTRRAFQPLLEMDQREALRTLKVIRETCVPGWD | soluble
MRTDPERFILDNAAIMHPPHVPELRLHLATEAHELWLKTEEELEEIGLPPPFWAFAWAGGQGLARYILDHPESVCGKRVLDFASGSGLVAIAAAKAGAAKVLAADIDPWTETAIRLNAALNGVDIGFTGLDLVGKPVDADVLLAGDVFYDRAFADLLVPWFVELTEKGMIVLVGDPGRAYLPKERLRAEATYQVPVTRALEDSDVKKTTVWRFILEHHHHHH | soluble
MRTMVFPGSAPAYPIRYPSTMQETDSGAGPRTLRRGLMVLAALRDQGPRGLSVTDIARQTGIQRPTIYRLLAALLDAGLVVPLQGTKKYRTQLAADADLAAPDPRVRQMLPVLRRLADRTGDAVFLVVRDGDDSVSLHREIGSYPVQILATYAGKRQPLGVGSGGMALLAALPDEIAHAIVQRNSGRLDEYGGMTPQEMHRLIENTRARGYSVVGNHAVRGALGVGCALLDAQGAPVLAVSVTAIIDRMPAQRQREIAGWIGAELARLAPKA | not soluble
MRTVEVVGRGPAVDALAAFLADIDVSVAQPSTPADSSGDLAIVVDTVGSERFAAWNDRAKDDAIPWVAVELGGVGGVPVTDAAISGFGPETGCFDCLRTRVEATVDDTEEVTGAPAAATQRFAGALAGRLVTQFLDGDAALLGTVTELPHTQRRFLPVPGCDCGGTQGHSLGDGRQTAPDSEALSRAELGLDDRVGIATEVGEVESFPAPYYLSTLADTAGFSDVSAAAKAAGVAIDWDTAFMKALGENYERYAAGVYREGNLQHGTVADVPAAVTPDTFVRDEAEWDESHALPWVPAENLLTDEQRSLPAETVHYPPPSNAVRPATTTGLGLGNTVTEALLTGLYEVIERDAAMLSWYSTFDPLRVAIDEHEQYETLRRRATSEGLDVTALLLTQDVDVPVITVALAQDEWPRFALGTDADLNPGAAAVGALEEALQNWMELDSMGPEAAMDAQGAIGRYAKSPGEAADLTASETAVPLDSLGPDVDLSGEAELETLCDRAADAGLAPYGTRLTTRDLEQLGFEAVRVVCPSAQPLFFGESFFGERAETVPADLGFEPRLDRDHHPFP | soluble
MRVDIWSDVVCPFCYIGKKRLEHVAAEAGIELDVHWHSFELDPDAPTSHDTSNTERLAKKYGRTFEEMQEMQQNIASMAAQEGIDFQWQKANSGNSFNAHRIIHLAQSKGLGNEAEEAFFHAYMTEGLAIGEREVVEEIASRIGLDHAEVEFVLDSNELSDFVRHDEKIAHEQLNISGVPFFVFDQKLALSGAQPKEVFLQVLQKALTQRENDAVAEASSDAVCSDDSCDIPQKS | not soluble
MRVGLFTDSYFPQISGVATSIRTLALELEKLGHEVFIFTTTDPNADVDHERNIIRLQSIPFVSLAERKIVLKGVFAAYLIAKEYDLDIIHTQTEFGMGILGKMVAAQLRIPVIHTLHTKYEDYVYYIAKGRLIRPSMVKYIIRNFLRGTEAIICPSEMVLETVNSYGVTLPKRVIPTGIEIDRFKRDDIEPEETAKLRVELGLAENEIMLLSLSRIAAEKNIQAVIHALPDILEEFPVKLVIVGHGPYAENLKELVKELELTDKVVFTGPVENEKTAYYYKAADFFISASTSETQGLTYLEAMAAGTRVLAAKNPYLSELINDDEFGQLFIGDDDLAEVTKKAIRDLHPIDKDKFEKKLYEISAENFAKKVYLFYIDTIIEYNNLKSIEAERFPMKMEDTIRQMPVTVKRSLKREQIRAKYFARKASKLAKNLQSYVKIDKDKEQDLEHHHHHH | soluble
MRVITVAGPPSVGKTSVVVKTATTLAAQGHRLGIVKFDSLSTSDDQVYRRAGLPVVVGLSGNVCPDHFFVSNIDDCVDWGRTHGVDILVAESAGLCNRCSPHVQGVQAICVVDNLSGVHTPRKIGPMLKLADVVVITKGDIVSQAEREVFAYNVRLANPRAQVMQFHGITGQGASDLAARMLCAPVVDALEGRRLRFSMPSAVCPYCIGETAIGVDHQRGNVRKMSFAEPARLEHHHHHH | soluble
MRVNVPVQVPPPASPPQPSQPAGQAQGGVTAPVIKVLPGNPLPPAGSAFVDDFSSYPTGAVLPMVAPDRYGVYKAPNGTLSPAVAETFTPQGGLDKALRLEAANTAMLTTGAPDWTDYRVSFRFKYETGGTLDVGLFVHGSGDRMLIVRLGWGYTGGVHLIKVAGDQRFTLVSRRELKPLTEALKDQNWHDFAAEARSDGTVRVMVDQQTVIEWKDPDYRAGGIGIGINRLGDRIIWHIDDLKVERL | soluble
MRVVAIGVGGAGGRIVDALHEDDSTREASYLAGGSVLETDRGALAALDAVSEEDRHHFGHSGFGGDADSPRERIEALAEDDHVEMRRAVDSAITSDAAAIIVIAGVGGATGSVIAPKLTDALQRIYDRPVYAVSVLPATHEEVPPENPARAIAAFESAANAQLVFDNDAWVDDRNDVEDVTDGLNAELAMRLGALFSAGEAVTAESVGQRVVDASEVISTLDEGGLATIGFARQPLGTDGDDGSLLDRARELVGMDETTVDEVESIKAVETTLRQATNGRLTFDCPRDAARSGLLVVSGPPEWLHQTAVSDGQSWLADEIGSVQLRTGDNPMPGGDELTILVLLGGIRGAPRIKEIQAATDLEHHHHHH | soluble
MRWWLCILVLLLAVPAQALLMPGTRVVEEHHANPFEIDVSSIDNLGDIPVDDPSDGINWSFLYLPYPNCTSGTGDATFIAVSRGSSNNILIYLEGGGACSDFYTCGMGQYVDHASCNATPTATVTTLNPNPWVVSYHYRYGIFDRANPDNPFRDWTIVFVPYSTGDVHWGNRVVKYCYYNPYNLSQVDCSINFTVHHVGFVNAITAIRWAAEQGDFDKVVIAGSSAGGYGTIVHSFYAREIFGKPILAIDDAGPGLNVNQSNFTIQMLFGIETLNETWGAYDNLPDDAQDFLGDRDPIFFVDYFLDHYPDSRFALYEDQMDYTIGVFFNGYTEEQFRDLLLNKACEIKAMHRHNFFRYLPLGTEHTILAYPWFYEKNIHNYRVYEWVWDLIKGKKRDAVELDGVRGIYLACPPGIFAKLEHHHHHH | not soluble
MRYDVLARAGFARRGNLHLPHSIVETPVFMPVGTQGTMKGIVPEQLVSMDCRILLCNTYHLGHRPGHERVKAAGGLHKMMNWNRSILTDSGGFQMVSLSKLMTVDENGVNFESPHTGEMMALPPEKSIEIQQALGADIMMQLDHVIHVLTTGDIVKEAMHRSIRWLDRCKVAHTRDDQAMFPILQGGLNLELRKECAKEMAKRAKVGIAIGGLSGGEEKDHFWRVVAACCAALPPHLPRYVMGVGFPVDLVICSFLGADMFDCVYPTRTARFGTAMVRRGGLMQLNQKRYKEDFLPIDKKCECNTCKNYTRAYIHSIVGKETVGCHLVSVHNIKHQLDLMRDVRQAIQSNSVEQFLKQFLYDYYGPIQSENPSKQDSEKMREVPQWVRDAVDHMGYKLDF | not soluble
MRYPESLLKLTRALSRLPGIGPKTAQRLALHLAFHKEEAEALAEALEGIKRVRACRECGNLAEGELCPICQDEDRDRSLLAVVESVADLYALERSGEFRGLYHVLGGALNPLEGIGPKELNLEGLFRRLEGVEEVVLATSMTVEGEATALYLAEELKKRGVRVTRPAYGLPVGGSLEYADEVTLGRALEGRRPV | soluble
MRYSFVIQWDFETVYTGVNSTTNLAFSVKAMTTNFANLQELQDSLVLRGQNLTTQLFWKPTVKRLVLGNNNDLTTVAKAAVGDNLFTTQANLTKSVLDQTVLKEAESRFEATVLKPFIEARQKALAEHQAHQKVLEEQRQKQLEELKQKQKEAE | soluble
MSAEEKNLIEILEEGHKVDVVKYIDYVSAPQAGAIATFSGTTRDMFEGKTVLELRYEAYVPMATRCLSSICTTARSTWDIHKIAVAHRLGPVPVGETSVLIAVSSVHRADGLDACKFLIDELKASVPIWKKEVYTNGEIWKENSEFMEKRLELAEKRDSIVKKTVVEEHRRRGCCGSKVRVEEDEEHKDITGDNKSSS | soluble
MSAIPENANVTVLNKNEKKARELIGKLGLKQIPGIIRVTFRKKDNQIYAIEKPEVFRSAGGNYVVFGEAKVDNFTQKLAAAQQQAQASGIMPSNEDVATKSPEDIQADMQAAAEGSVNAAAEEDDEEGEVDAGDLNKDDIELVVQQTNVSKNQAIKALKAHNGDLVNAIMSLSK | soluble
MSAISSFVLECAHAGRWVRGLMALQEQHLPAEPSMRVACVALAQAAAPHSWAAALCLLRPSDALRHPQEVCKTVDTIARHAQLPIDVFESSMEALLLSLQQLSQSKSHPASGSSRQLASIGPCEALGLATPSTPIQQQVFLSATQWCGWETAARLLACLPSPLPQACVERVQELRTLRHRILHDVGPFCHWGSRAALSSVIGSAGGPLPASAQGTSLAEQLERMEPSPARRYSARDRRELSWLRDHKRQRLLQRTREEEDMLTRQAAEDVAPSALSVCAALRAVTRLPSAASVTAPHVLCRHVLTLSQSRRLTPDIALLYGRAAGLCTPHSWEATVDTLNRAEVRDARLHRQLTTWVISRGSWRAALERLSQLHRDTSSAVPQRSGNNTGDLHRGGDAAASFDCVQRTAVPASYLHRVVPQVSRPWCRLVSSRHSTASLLRQIAGALAGGVRLDEVQLSEAGKEWAANGRWEAALALYYRFPLPEFQKYATRSLVTARPALPPVPSVSHPPSSCLQIGSDPLPGSPSKDSAMFYARTVLELLVPRDGVRYDSASPPRPAPPLGTYPACLVIDAAADWSEAVAVFRACVRRGTRCNPQLLSTLMRRQDLPPQELRQILKSYPAAVNDGVRRRAKEGFGVE | not soluble
MSAIWLSGAQAFCPAPASLPVAHVQRVVDGDTLRLTDGRNVRMIGLNTPETGKKGRSAEPFAEAAKKRLQALVDKSGGQISLRVGQQGKDHYGRTLANVYGRNGDNLEAQLLSEGLGYLVAVAPNVALVDCQQSAEREARQARRGVWRNSQVQPSDKLRKGGFAVVSGKVRSVQRNRGGIWIELHGSVVLRVAPDQAFRFDMAALERLKGRQIETRGWVIDRSGRGGLKAGQSRWMIALSHPAMLSLLEHHHHHH | not soluble
MSAKHPIIAVTGSSGAGTTTTSEAFRKMFNMMSIKPAWVEGDSFHRFTRPEMDVEIRKAREQGRHISYFGPQANDFPTLEEFFRQYGKVGTGQVRRYLHTFDEAVPYNQMPGTFTPWQSLPENSDVLFYEGLHGGVVDGDVNVAQHVDFLIGMVPIVNLEWIQKYVRDTRDRGHSREAVMDSIVRSMDDYLKFITPQFSRTHINFQRVPTVDTSNPLNAKGIPTLDESFVVIRFRGIKNVDFPYLLAMIDGSFMSRHNTIVVPGGKMSFAMDLIVRPLLQQLIETGKIG | not soluble
MSAKTKFKSPAFEPIHSAASGLFSVDAIPQETMRSFDTACLSSIKDLQPLEIKALREKLNVSQPVFARYLNTSVSTVQKWESGAKRPSGMSLKLLNVVQKHGLKVLV | not soluble
MSALIVSDIDGTLIDSRERIPSAVKESLAAAQRAGVSFVVATGRPARWIHPIIDQLYTPPTLCVCANGAVIYDPACDSITHRRELAPDAMRTVVRVAREALSDLGGCGVGVERAGVSAHDMPGELFMVTPDFVHSWESIEHSTVELDRVLARSAVKLLLRNDALTSEQMHRLVAPVVPADVAHVTYSMPDGLLEVMQPGVNKSSALDVVAQDLGVDPADAIAFGDMLNDLEMIRWAGTGVAMGNACDQLQRAADVVAPTNDEAGIAVVLREWLQG | not soluble
